These results are taken from patent US20230212319A1, “NOVEL ANTIGEN BINDING DOMAINS AND SYNTHETIC ANTIGEN RECEPTORS INCORPORATING THE SAME” (University of Southern California, priority 2020, published 2023).

In one test the test system is RAJI cells. Put plainly: JNG assay, co-culture with RAJI cells. The conditions noted are these: JNG cells expressing construct, co-culture with Raji. The format is cell-based. In a few lines: (§1)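 Jurkat NFAT-GFP (JNG) cells stably transduced with SARs by lentivirus, with drug selection where the construct carried a resistance gene, then co-cultured with target cells at E:T ~1:2 for ~4–18 h. % GFP-positive cells measured by FACS against parental JNG; +/- to 5+ correspond to ~5–50% GFP-positive.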

The subject of another test is L363 cells. Put plainly: JNG assay, co-culture with L363 cells. It is filed as cell-based. Particulars: co-culture with L363. The essentials:
as §1

B1: 22052 (protein)
chain: MALPVTALLLPLALLLHAARPQLQLQESGPGLVKPSETLSLTCTVSGDSISSGDYYWGWIRQPPGKGLEWIGHIYYSGVTYYNPSLKSRVTISVDTSRNQFSLKLSSVTAADTAVYYCTREDSSNWRSRGQGTLVTVSSLEDKTHTCPPCPAEVKTDSTDHVKPKETENTKQPSKSCHKPKAIVHTEKVNMMSLTVLGLRMLFAKTVAVNFLLTAKLFFLRAKRSGSGVKQTLNFDLLKLAGDVESNPGPTSMDWIWRILFLVGAATGAHSFEVQLLESGGGLIQPGGSLRLSCAASGFTFSSHAMTWVRQAPGKGLEWVSAISGSGDYTHYADSVKGRFTISRDNSKNTVYLQMNSLRAEDSAVYYCAKDEDGGSLLGHRGQGTLVTVSSTRDKTHTCPPCPAIPEDTFFPSPESSCDVKLVEKSFETDTNLNFQNLSVIGFRILLLKVAGFNLLMTLRLWSSRAKRSGSGVKQTLNFDLLKLAGDVESNPGPSRGHMTEYKPTVRLATRDDVPRAVRTLAAAFADYPATRHTVDPDRHIERVTELQELFLTRVGLDIGKVWVADDGAAVAVWTTPESVEAGAVFAEIGPRMAELSGSRLAAQQQMEGLLAPHRPKEPAWFLATVGVSPDHQGKGLGSAVVLPGVEAAERAGVPAFLETSAPRNLPFYERLGFTVTADVEVPEGPRTWCMTRKPGA
On to B1, for which the “NFAT-GFP ASSAY: Raji” value with RAJI cells was “+/- (refer to approximately 5%, 10%, 20%, 30%, 40% and 50% GFP positive cells)”. Besides, in the test with L363 cells, the “NFAT-GFP ASSAY: L363” value is “+/- (refer to approximately 5%, 10%, 20%, 30%, 40% and 50% GFP positive cells)”.

B2: 22051 (protein)
chain: MALPVTALLLPLALLLHAARPQLQLQESGPGLVKPSETLSLTCTVSGDSISSGDYYWGWIRQPPGKGLEWIGHIYYSGVTYYNPSLKSRVTISVDTSRNQFSLKLSSVTAADTAVYYCTREDSSNWRSRGQGTLVTVSSLEDKTHTCPPCPAGRADCGFTSESYQQGVLSATILYEILLGKATLYAVLVSALVLMAMVKRKDSRGRAKRSGSGATNFSLLKQAGDVEENPGPTSMDWIWRILFLVGAATGAHSFEVQLLESGGGLIQPGGSLRLSCAASGFTFSSHAMTWVRQAPGKGLEWVSAISGSGDYTHYADSVKGRFTISRDNSKNTVYLQMNSLRAEDSAVYYCAKDEDGGSLLGHRGQGTLVTVSSTRDKTHTCPPCPAEVKTDSTDHVKPKETENTKQPSKSCHKPKAIVHTEKVNMMSLTVLGLRMLFAKTVAVNFLLTAKLFFL
B2: the “NFAT-GFP ASSAY: Raji” value in the test on RAJI cells is “+/- (refer to approximately 5%, 10%, 20%, 30%, 40% and 50% GFP positive cells)”. Also, in the test with L363 cells, the “NFAT-GFP ASSAY: L363” value was “+/- (refer to approximately 5%, 10%, 20%, 30%, 40% and 50% GFP positive cells)”.

B3: 22078 (protein)
chain: MALPVTALLLPLALLLHAARPQLQLQESGPGLVKPSETLSLTCTVSGDSISSGDYYWGWIRQPPGKGLEWIGHIYYSGVTYYNPSLKSRVTISVDTSRNQFSLKLSSVTAADTAVYYCTREDSSNWRSRGQGTLVTVSSLESGGGGSFEEVQLLESGGGLVQPGGSLRLSCAASGFTFSSYAMSWVRQAPGKGLEWVSSISGSGDYIYYADSVKGRFTISRDISKNTLYLQMNSLRAEDTAVYYCAKEGTGANSSLADYRGQGTLVTVSSTRASTKGPSVFPLAPSSKSTSGGTAALGCLVKDYFPEPVTVSWNSGALTSGVHTFPAVLQSSGLYSLSSVVTVPSSSLGTQTYICNVNHKPSNTKVDKRVEPKSCEVKTDSTDHVKPKETENTKQPSKSCHKPKAIVHTEKVNMMSLTVLGLRMLFAKTVAVNFLLTAKLFFLRAKRSGSGVKQTLNFDLLKLAGDVESNPGPSRGHMTEYKPTVRLATRDDVPRAVRTLAAAFADYPATRHTVDPDRHIERVTELQELFLTRVGLDIGKVWVADDGAAVAVWTTPESVEAGAVFAEIGPRMAELSGSRLAAQQQMEGLLAPHRPKEPAWFLATVGVSPDHQGKGLGSAVVLPGVEAAERAGVPAFLETSAPRNLPFYERLGFTVTADVEVPEGPRTWCMTRKPGA
In the case of B3, the “NFAT-GFP ASSAY: Raji” value in the test on RAJI cells was “+/- (refer to approximately 5%, 10%, 20%, 30%, 40% and 50% GFP positive cells)”. For the same molecule, the “NFAT-GFP ASSAY: L363” value with L363 cells is “+/- (refer to approximately 5%, 10%, 20%, 30%, 40% and 50% GFP positive cells)”.

B4: 22050 (protein)
chain: MALPVTALLLPLALLLHAARPQVQLVESGGGLVQPGGSLRLSCAASGFTFTNHAMSWVRQAPGKGLELVSSISGNGRTTYYADSVKGRFTISRDISKNTLDLQMNSLRAEDTAVYYCAKDGGETLVDSRGQGTLVTVSSLEGQPKANPTVTLFPPSSEELQANKATLVCLISDFYPGAVTVAWKADGSPVKAGVETTKPSKQSNNKYAASSYLSLTPEQWKSHRSYSCQVTHEGSTVEKTVAPTECSPIKTDVITMDPKDNCSKDANDTLLLQLTNTSAYYMYLLLLLKSVVYFAIITCCLLRRTAFCCNGEKSRAKRSGSGATNFSLLKQAGDVEENPGPTSMDWIWRILFLVGAATGAHSFEEVQLLESGGGLVQPGGSLRLSCAASGFTFSSYAMSWVRQAPGKGLEWVSSISGSGDYIYYADSVKGRFTISRDISKNTLYLQMNSLRAEDTAVYYCAKEGTGANSSLADYRGQGTLVTVSSTRASTKGPSVFPLAPSSKSTSGGTAALGCLVKDYFPEPVTVSWNSGALTSGVHTFPAVLQSSGLYSLSSVVTVPSSSLGTQTYICNVNHKPSNTKVDKRVEPKSCEVKTDSTDHVKPKETENTKQPSKSCHKPKAIVHTEKVNMMSLTVLGLRMLFAKTVAVNFLLTAKLFFLRAKRSGSGVKQTLNFDLLKLAGDVESNPGPSRGHMTEYKPTVRLATRDDVPRAVRTLAAAFADYPATRHTVDPDRHIERVTELQELFLTRVGLDIGKVWVADDGAAVAVWTTPESVEAGAVFAEIGPRMAELSGSRLAAQQQMEGLLAPHRPKEPAWFLATVGVSPDHQGKGLGSAVVLPGVEAAERAGVPAFLETSAPRNLPFYERLGFTVTADVEVPEGPRTWCMTRKPGA
For B4, the “NFAT-GFP ASSAY: Raji” value with RAJI cells was “+ (refer to approximately 5%, 10%, 20%, 30%, 40% and 50% GFP positive cells)”. Also, the “NFAT-GFP ASSAY: L363” value with L363 cells is “+/- (refer to approximately 5%, 10%, 20%, 30%, 40% and 50% GFP positive cells)”.

B5: 22087 (protein)
chain: MALPVTALLLPLALLLHAARPQVQLVESGGGLVQPGGSLRLSCAASGFTFTNHAMSWVRQAPGKGLELVSSISGNGRTTYYADSVKGRFTISRDISKNTLDLQMNSLRAEDTAVYYCAKDGGETLVDSRGQGTLVTVSSLEGSGGGGSGGGGSGEDLKNVFPPEVAVFEPSEAEISHTQKATLVCLATGFYPDHVELSWWVNGKEVHSGVCTDPQPLKEQPALNDSRYCLSSRLRVSATFWQNPRNHFRCQVQFYGLSENDEWTQDRAKPVTQIVSAEAWGRADCGFTSESYQQGVLSATILYEILLGKATLYAVLVSALVLMAMVKRKDSRGRAKRSGSGATNFSLLKQAGDVEENPGPTSMDWIWRILFLVGAATGAHSFEEVQLLESGGGLVQPGGSLRLSCAASGFTFSSYAMSWVRQAPGKGLEWVSSISGSGDYIYYADSVKGRFTISRDISKNTLYLQMNSLRAEDTAVYYCAKEGTGANSSLADYRGQGTLVTVSSTRGSIPEDTFFPSPESSCDVKLVEKSFETDTNLNFQNLSVIGFRILLLKVAGFNLLMTLRLWSS
For the molecule B5, the “NFAT-GFP ASSAY: Raji” value in the test with RAJI cells was “+ (refer to approximately 5%, 10%, 20%, 30%, 40% and 50% GFP positive cells)”. For the same molecule, in the test on L363 cells, the “NFAT-GFP ASSAY: L363” value is 2+ (refer to approximately 5%, 10%, 20%, 30%, 40% and 50% GFP positive cells).

B6: 22076 (protein)
chain: MALPVTALLLPLALLLHAARPQLQLQESGPGLVKPSETLSLTCTVSGDSISSGDYYWGWIRQPPGKGLEWIGHIYYSGVTYYNPSLKSRVTISVDTSRNQFSLKLSSVTAADTAVYYCTREDSSNWRSRGQGTLVTVSSLESGGGGSFEQVQLVESGGGLVQPGGSLRLSCAASGFTFTNHAMSWVRQAPGKGLELVSSISGNGRTTYYADSVKGRFTISRDISKNTLDLQMNSLRAEDTAVYYCAKDGGETLVDSRGQGTLVTVSSTRASTKGPSVFPLAPSSKSTSGGTAALGCLVKDYFPEPVTVSWNSGALTSGVHTFPAVLQSSGLYSLSSVVTVPSSSLGTQTYICNVNHKPSNTKVDKRVEPKSCIPEDTFFPSPESSCDVKLVEKSFETDTNLNFQNLSVIGFRILLLKVAGFNLLMTLRLWSSRAKRSGSGVKQTLNFDLLKLAGDVESNPGPSRGHMTEYKPTVRLATRDDVPRAVRTLAAAFADYPATRHTVDPDRHIERVTELQELFLTRVGLDIGKVWVADDGAAVAVWTTPESVEAGAVFAEIGPRMAELSGSRLAAQQQMEGLLAPHRPKEPAWFLATVGVSPDHQGKGLGSAVVLPGVEAAERAGVPAFLETSAPRNLPFYERLGFTVTADVEVPEGPRTWCMTRKPGA
Take B6: the “NFAT-GFP ASSAY: Raji” value in the test with RAJI cells was “+/- (refer to approximately 5%, 10%, 20%, 30%, 40% and 50% GFP positive cells)”. Also, in the test on L363 cells, the “NFAT-GFP ASSAY: L363” value is “+ (refer to approximately 5%, 10%, 20%, 30%, 40% and 50% GFP positive cells)”.

B7: 22073 (protein)
chain: MALPVTALLLPLALLLHAARPQLQLQESGPGLVKPSETLSLTCTVSGDSISSGDYYWGWIRQPPGKGLEWIGHIYYSGVTYYNPSLKSRVTISVDTSRNQFSLKLSSVTAADTAVYYCTREDSSNWRSRGQGTLVTVSSLEGQPKANPTVTLFPPSSEELQANKATLVCLISDFYPGAVTVAWKADGSPVKAGVETTKPSKQSNNKYAASSYLSLTPEQWKSHRSYSCQVTHEGSTVEKTVAPTECSGRADCGFTSESYQQGVLSATILYEILLGKATLYAVLVSALVLMAMVKRKDSRGRAKRSGSGATNFSLLKQAGDVEENPGPTSMDWIWRILFLVGAATGAHSFEVQLLESGGGLIQPGGSLRLSCAASGFTFSSHAMTWVRQAPGKGLEWVSAISGSGDYTHYADSVKGRFTISRDNSKNTVYLQMNSLRAEDSAVYYCAKDEDGGSLLGHRGQGTLVTVSSTRIQNPDPAVYQLRDSKSSDKSVCLFTDFDSQTNVSQSKDSDVYITDKCVLDMRSMDFKSNSAVAWSNKSDFACANAFNNSIIPEDTFFPSPESSCDVKLVEKSFETDTNLNFQNLSVIGFRILLLKVAGFNLLMTLRLWSSRAKRSGSGVKQTLNFDLLKLAGDVESNPGPSRGHMTEYKPTVRLATRDDVPRAVRTLAAAFADYPATRHTVDPDRHIERVTELQELFLTRVGLDIGKVWVADDGAAVAVWTTPESVEAGAVFAEIGPRMAELSGSRLAAQQQMEGLLAPHRPKEPAWFLATVGVSPDHQGKGLGSAVVLPGVEAAERAGVPAFLETSAPRNLPFYERLGFTVTADVEVPEGPRTWCMTRKPGA
As to B7, the “NFAT-GFP ASSAY: Raji” value with RAJI cells was “+/- (refer to approximately 5%, 10%, 20%, 30%, 40% and 50% GFP positive cells)”. Also, the “NFAT-GFP ASSAY: L363” value in the test on L363 cells is “+/- (refer to approximately 5%, 10%, 20%, 30%, 40% and 50% GFP positive cells)”.
